Measurements published in the supplement of paper PMC12667976.

B1: library; numbered along this chain (parent)
chain: MATDAALRRLLRLHRTEIAVAVDSAFPLLHALADHDVVPEDKFQETLHLKEKEGCPQAFHALLSWLLTQDSTAILDFWRVLFKDYNLERYGRLQPILDSFPKDVDLSQPRKGRKPPAVPKALVPPPRLPTKRKASEEARAAAPAALTPRGTASPGSQLKAKPPKKPESSAEQQRLPLGNGIQTMSASVQRAVAMSSGDVPGARGAVEGILIQQVFESGGSKKCIQVGGEFYTPSKFEDSGSGKNKARSSSGPKPLVRAKGAQGAAPGGGEARLGQQGSVPAPLALPSDPQLHQKNEDECAVCRDGGELICCDGCPRAFHLACLSPPLREIPSGTWRCSSCLQATVQEVQPRAEEPRPQEPPVETPLPPGLRSAGEEVRGPPGEPLAGMDTTLVYKHLPAPPSAAPLPGLDSSALHPLLCVGPEGQQNLAPGARCGVCGDGTDVLRCTHCAAAFHWRCHFPAGTSRPGTGLRCRSCSGDVTPAPVEGVLAPSPARLAPGPAKDDTASHEPALHRDDLESLLSEHTFDGILQWAIQSMARPAAPFPS

Variants of: B1
Test: AIRE transcriptional activation functional score (insulin promoter-GFP; nonsense median 0, synonymous median 1) (normalised score); higher = higher AIRE activity (more reporter activation)
Details: with insulin promoter-GFP reporter in HEK293
How it was run: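 Codon-optimized AIRE NNN-codon libraries (three regions) were integrated by Bxb1 recombinase into Flp-In T-REx HEK293 landing-pad cells carrying an insulin core promoter-GFP reporter. Integrants (mCherry+, BFP−) sorted at day 7 were expanded 7 days; top 10% GFP and unselected integrant populations were tile-sequenced. Functional score is select versus non-select variant enrichment, wild-type subtracted. Variants needed 10 counts per million in non-select; scores were rescaled to nonsense median 0 and synonymous median 1, then averaged over biological replicates.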

AIRE transcriptional activation functional score, by site and new letter:
Q426: L 1.06, D 0.796, H 1.18, M 1.34, N 1.23, F 1.34, R 0.722, V 1.29, Y 1.54, C 1.4, G 0.866, A -0.467, I 0.87, W 1.64, K 1.16, T 1.17, E 1.07, P 1.09, S 0.831
P416: T 0.937, V 0.526, F 0.451, N 1.21, D -0.251, H -0.0276, L 0.688, I 0.0784, A 0.819, M 1.55, S 1.09, R 0.68, Y 0.419, C 1.46, G 0.937, Q 1.49, K 0.665, W 1.5
G424: D 1, K 1.04, T 1.59, V 1.25, C 1.41, I -0.488, M 0.308, S 1.19, A 1.25, H 0.363, E 0.64, R 1.03, L 1.08, P 1.24, N 0.684, Q 1.49, F 1.64, W 1.26, Y 0.738
L418: S 0.85, E 0.507, M 0.207, Y 1.42, D 0.816, A 1.06, F 1.42, Q 1.28, N 1.02, K 0.4, H 0.443, V 1.04, R 0.67, G 1, T 0.829, C 1.16, I 0.6, P 0.93
L417: N 1.05, F 1.3, Y 1.21, V 0.708, E 0.739, R 0.707, A 0.892, T 0.966, H 0.632, I 0.855, Q 1.07, P 0.784, K 0.833, D 1.12, W 1.3, S 0.626, C 1.24, G 0.679
P422: Q 0.91, D 1.69, F 0.774, I 1.26, A 0.724, H 0.986, S 0.814, E 0.766, W 1.69, C 1.28, R 0.868, V 0.479, N 1.18, Y 1.42, G 1.53, T 0.528, L 1.3
P430: H 1.32, W 1.3, K 0.999, Y 1.03, N 1.14, Q 1.01, V 0.632, A 0.806, D 0.951, C 0.92, G 1.21, L 1.18, T 0.77, S 0.992, I 1.28, F 1.69, E 1.01, R 0.778
A429: W 1.2, E 0.833, T 1.12, L 1.06, V 1.01, K 0.0334, H 1.47, Q 1.32, Y 0.892, P 0.614, R 0.843, N 1.09, C 0.771, I 1.14, F 1.34, D 1.07, G 0.724, S 1.09
C419: G 0.96, V 1.22, T 1.2, I 0.681, S 0.615, D 0.584, P 1.24, F 1.64, H 0.558, E 1.04, A 0.69, N 0.258, Q 1.3, K 1.17, W 1.21, L 1.33, R 0.836
Q425: F 1.13, H 1.3, V 0.734, W 1.28, K 0.902, D 0.431, M 0.974, C 0.714, E 0.587, S 1.06, T 0.973, P 1.21, Y 1.28, L 1.18, N 0.869, I 1.07, R 0.94, G 1.04, A 0.368
L428: K 0.817, N 1.08, E 0.885, T 0.817, C 0.816, W 1.31, P 0.955, D 0.545, H 1.48, R 0.941, S 1.15, M 1.32, A 1.08, Q 1.01, Y 1.05, G 0.959, F 1.09, I 1.22
G431: C 0.854, R 0.579, Q 0.86, D 0.852, F 1.14, M 0.776, V 1.13, T 1.21, W 1.29, Y 0.576, K 0.71, N 0.881, L 0.794, I 1.32, E 0.793, A 1.23, H 1.39, S 0.927, P 0.983
R433: L 0.786, D 0.895, H 0.569, M 0.755, T 0.808, Q 1.13, C 0.922, K 1.03, P 0.565, G 0.748, E 1.39, S 0.734, F 0.678, I 0.308, N 1.15, A 0.402
A432: F 1.06, H 0.437, C 1.2, L 0.822, K 0.599, T 0.81, R 0.993, G 1.22, V 0.872, Q 0.748, I 0.534, S 0.578, D 0.806, M 0.0975, W 1.88, Y 1.28, E 1.16, P 0.463, N -0.334
V420: G 0.846, S 1.07, R 1.03, I 0.811, P 1.01, Y 0.639, K 0.606, Q -0.123, A 1.04, E 0.728, W 1.35, M 1.43, L 0.722, H 0.593, T 0.608, F 1.03, D 0.683, C 1.11
N427: V 1.06, P 1.18, W 1.3, L 1.51, K 0.842, R 0.362, D 1.07, Q 0.539, M 1.81, H 0.904, A 1.33, G 1, Y 1.47, I 1, E 1.12, F 1.42, C 1.1, S 1.1, T 1.07
H415: W 0.671, S 0.782, P 1.11, T 0.92, Q 0.783, N 1.22, M -0.327, V 1.06, R 0.811, Y 1.42
E423: A 1.2, F 1.02, L 1.28, M 0.551, V 1.2, Y 1.38, P 0.817, G 1.34, T 0.737, S 1.27, R 0.409, K 0.795, C 0.459, I 1.05, H 1.2, Q 0.981, D 1.25
G421: R 0.926, K 0.558, M 0.931, V 0.933, D 1.83, C 1.58, L 0.327, Y -0.246, A 0.875, N 0.869, E 1.65, W 1.43, P 1.4, H -0.132, F 1.33, T 0.472, S 0.74
